{
  "source": "paper PMC3848040",
  "proteins": {"B1": {"name": "SGK196dTM (Homo sapiens) (protein)", "chain": "APRQSTVDPTHCPYGHFRIGQMKNCSPWLSCEELRTEVRQLKRVGEGAVKRVFLSEWKEHKVALSQLTSLEMKDDFLHGLQMLKSLQGTHVVTLLGYCEDDNTMLTEYHPLGSLSNLEETLNLSKYQNVNTWQHRLELAMDYVSIINYLHHSPVGTRVMCDSNDLPKTLSQYLLTSNFSILANDLDALPLVNHSSGMLVKCGHRELHGDFVAPEQLWPYGEDVPFHDDLMPSYDEKIDIWKIPDISSFLLGHIEGSDMVRFHLFDIHKACKSQTPSERPTAQDVLETYQKVLDTLRDAMMSQAREML"}},
  "substrate": "Nc1ncnc2c1ncn2[C@@H]1O[C@H](COP(=O)(O)OP(=O)(O)OP(=O)(O)O)[C@@H](O)[C@H]1O",
  "test": "purified protein",
  "conditions": "phosphate donor; activity depends on divalent ions",
  "data": [
    {"protein": "B1", "values": [
      {"measurement": "Km", "result": "4.1 ± 1.4", "unit": "µM"}
    ]}
  ]
}
